{"source": "patent US20190241662A1", "about": "(ADAGENE, published 2019)", "key": {"[1]": {"biological_target": "T1, human PD1 on HEK293F cells (human, UniProt Q15116 25-288)", "T1 construct": "whole, on cells", "T1 sequence (Q15116 25-288)": "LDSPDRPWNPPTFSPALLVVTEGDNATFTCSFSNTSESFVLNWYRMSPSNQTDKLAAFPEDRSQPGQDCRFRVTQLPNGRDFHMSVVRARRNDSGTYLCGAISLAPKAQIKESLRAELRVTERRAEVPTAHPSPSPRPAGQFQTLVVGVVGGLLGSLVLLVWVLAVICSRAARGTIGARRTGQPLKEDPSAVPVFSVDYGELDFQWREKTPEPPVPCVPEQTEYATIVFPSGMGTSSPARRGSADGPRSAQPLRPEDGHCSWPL", "assay": "flow cytometry, transfected HEK293F cells, 100 nM antibody [Cont.]", "protocol": "(§1) Antibody selectivity was next examined. Human CTLA4, PD1, LAG3, Tim3, B7H3, CD95, TNFR1, OX40, CD40, PD-L1, BLTA, VISTA, PDL2, ICOS and B7H4 were transiently overexpressed on the surface of HEK293F cells. Transfected cells were washed in pre-chilled 1×PBSA buffer (1.76 mM KH2PO4, 10.14 mM Na2HPO4.12H2O, 2.68 mM KCl, 136.89 mM NaCl and 1% BSA), then incubated with 100 nM test antibodies for 1 hour on ice. Cells were washed once with staining buffer, and Alexa Fluor® 647 conjugated mouse anti-human FC antibodies were added and incubated for 30 minutes on ice, protected from light. Samples were washed once with staining buffer prior to analysis by flow cytometry."}, "[2]": {"biological_target": "T2, human Tim3 on HEK293F cells (human, UniProt Q8TDQ0 22-301)", "T2 construct": "whole, on cells", "T2 sequence (looked up)": "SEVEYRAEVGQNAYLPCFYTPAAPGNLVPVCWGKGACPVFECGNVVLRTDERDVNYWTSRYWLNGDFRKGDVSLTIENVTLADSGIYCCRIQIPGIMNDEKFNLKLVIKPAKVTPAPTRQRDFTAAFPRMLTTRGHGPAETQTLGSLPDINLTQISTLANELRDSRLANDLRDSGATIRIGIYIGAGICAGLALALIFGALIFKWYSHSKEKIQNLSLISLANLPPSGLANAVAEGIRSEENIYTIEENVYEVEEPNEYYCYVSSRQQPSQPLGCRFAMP", "assay": "flow cytometry, transfected HEK293F cells, 100 nM antibody [Cont.]", "protocol": "as §1"}, "[3]": {"biological_target": "T3, human LAG3 on HEK293F cells (human, UniProt P18627 23-525)", "T3 construct": "whole, on cells", "T3 sequence (looked up)": "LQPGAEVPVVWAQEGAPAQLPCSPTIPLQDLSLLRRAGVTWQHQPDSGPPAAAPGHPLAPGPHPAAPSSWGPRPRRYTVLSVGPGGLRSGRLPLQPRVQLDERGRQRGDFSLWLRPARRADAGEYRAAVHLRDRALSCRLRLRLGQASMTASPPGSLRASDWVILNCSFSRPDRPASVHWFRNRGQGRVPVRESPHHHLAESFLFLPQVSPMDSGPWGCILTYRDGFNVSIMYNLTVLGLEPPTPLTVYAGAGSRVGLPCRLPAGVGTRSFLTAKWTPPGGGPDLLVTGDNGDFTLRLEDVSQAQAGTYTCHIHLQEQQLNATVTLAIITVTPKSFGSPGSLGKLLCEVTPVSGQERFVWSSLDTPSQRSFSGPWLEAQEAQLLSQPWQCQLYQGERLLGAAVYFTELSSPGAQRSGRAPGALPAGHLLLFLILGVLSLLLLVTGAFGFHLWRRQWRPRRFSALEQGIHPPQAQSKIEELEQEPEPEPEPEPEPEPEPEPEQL", "assay": "flow cytometry, transfected HEK293F cells, 100 nM antibody [Cont.]", "protocol": "as §1"}, "[4]": {"biological_target": "T4, human CD40 on HEK293F cells (human, UniProt P25942 21-277)", "T4 construct": "whole, on cells", "T4 sequence (P25942 21-277)": "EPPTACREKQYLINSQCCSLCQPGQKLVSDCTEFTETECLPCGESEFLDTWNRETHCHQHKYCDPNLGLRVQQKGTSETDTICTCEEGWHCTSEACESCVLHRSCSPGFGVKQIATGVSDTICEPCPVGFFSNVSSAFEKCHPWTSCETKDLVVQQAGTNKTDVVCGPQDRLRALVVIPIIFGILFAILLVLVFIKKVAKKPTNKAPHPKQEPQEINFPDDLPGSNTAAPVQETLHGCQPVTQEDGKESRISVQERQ", "assay": "flow cytometry, transfected HEK293F cells, 100 nM antibody [Cont.]", "protocol": "as §1"}, "[5]": {"biological_target": "T5, human OX40 on HEK293F cells (human, UniProt P43489 29-277)", "T5 construct": "whole, on cells", "T5 sequence (looked up)": "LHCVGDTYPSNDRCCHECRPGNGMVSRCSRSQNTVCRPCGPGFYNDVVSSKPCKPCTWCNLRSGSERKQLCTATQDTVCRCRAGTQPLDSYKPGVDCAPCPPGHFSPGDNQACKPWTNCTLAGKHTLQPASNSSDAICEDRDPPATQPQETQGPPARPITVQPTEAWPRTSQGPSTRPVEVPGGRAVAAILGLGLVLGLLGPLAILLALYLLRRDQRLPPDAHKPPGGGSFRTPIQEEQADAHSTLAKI", "assay": "flow cytometry, transfected HEK293F cells, 100 nM antibody", "protocol": "as §1"}, "[6]": {"biological_target": "T1, human PD1 on HEK293F cells", "assay": "flow cytometry, transfected HEK293F cells, 100 nM antibody", "protocol": "as §1"}, "[7]": {"biological_target": "T6, full-length human CTLA4 expressed on cells (human, UniProt P16410 36-223)", "T6 construct": "whole, on cells; also called HEK293F/hCTLA-4 cells; HEK293F/hCTLA4 cells", "T6 sequence (looked up)": "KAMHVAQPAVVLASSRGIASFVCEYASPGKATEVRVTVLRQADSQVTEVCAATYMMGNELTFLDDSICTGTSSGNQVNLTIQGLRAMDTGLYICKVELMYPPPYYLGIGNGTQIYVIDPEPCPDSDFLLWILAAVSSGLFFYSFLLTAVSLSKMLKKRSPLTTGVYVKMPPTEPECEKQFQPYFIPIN", "assay": "flow cytometry, transfected HEK293F cells, 100 nM antibody", "protocol": "as §1"}, "[8]": {"biological_target": "T3, human LAG3 on HEK293F cells", "assay": "flow cytometry, transfected HEK293F cells, 100 nM antibody", "protocol": "as §1"}, "[9]": {"biological_target": "T6, full-length human CTLA4 expressed on …", "assay": "flow cytometry, transfected HEK293F cells, antibody concentration not given", "protocol": "(§2) The affinities of the antibodies were also assessed against human and mouse CTLA4 transiently expressed on the surface of HEK293F cells (FIG. 2). Briefly, HEK293F cells were transfected with a plasmid expressing full-length human, monkey or mouse CTLA4 from a bicistronic IRES vector also encoding EGFP, and EGFP expression was used to identify the transfected cells. After 48 hours, the mammalian cell suspension (2×10⁵/well) was transferred to an Eppendorf tube, centrifuged, the supernatant was discarded, the cells were resuspended with 1 mL PBSA (to a density is 4×10⁶ cells/mL), and added to a 96 well plate. […] The cells were then washed once prior to analysis by flow cytometry (Beckman® CytoFlex)."}, "[10]": {"biological_target": "T7, full-length mouse CTLA4 expressed on HEK293F cells (mouse, UniProt P09793 36-223)", "T7 construct": "whole, on cells", "assay": "flow cytometry, transfected HEK293F cells, antibody concentration not given", "protocol": "as §2"}, "[11]": {"biological_target": "T5, human OX40 on HEK293F cells", "assay": "flow cytometry, transfected HEK293F cells, 100 nM antibody [Cont.]", "protocol": "as §1"}}}
{"binder": "TY21687 (antibody, V domains shown, human IgG1 (hIgG1) from Fab hit B15700) VH: EVQLVESGGGLVQPGGSLRLSCAASGFTFSGYAIHWVRQAPGKGLEWIGIISPSGGGTKYAQKFQGRVTISRDNSKNTLYLQLNSLRAEDTAVYYCARHPFAYWGQGTLVTVSS VL: DIQLTQSPSSLSASVGDRVTITCRASQSVDFYGISFLDWYQQKPGKAPKLLIYDASNRATGIPSRFSGSGSGTDFTLTISSLQPEDFATYYCQQYVSSPPEYTFGQGTKVEIK", "values": [{"measurement": "% of cells in upper right quadrant (Q2)", "setting": "[1]", "result": 5.96, "unit": "%"}, {"measurement": "% of cells in upper right quadrant (Q2)", "setting": "[2]", "result": 1.85, "unit": "%"}, {"measurement": "% of cells in upper right quadrant (Q2)", "setting": "[3]", "result": 1.31, "unit": "%"}]}
{"binder": "TY21585 (antibody, V domains shown, human IgG1 (hIgG1) from Fab hit B15709) VH: EVQLVESGGGLVQPGGSLRLSCAASGFTFSDYAIHWVRQAPGKGLEWIGIISPSSGSTNYAQKFQGRVTISRDNSKNTLYLQLNSLRAEDTAVYYCARDIHSGSSGYYYGFDVWGQGTLVTVSS VL: DIQLTQSPSSLSASVGDRVTITCRASESVDFFGISFLAWYQQKPGKAPKLLIYDASNRATGIPSRFSGSGSGTDFTLTISSLQPEDFATYYCQHYTSSPPVYTFGQGTKVEIK", "values": [{"measurement": "% of cells in upper right quadrant (Q2)", "setting": "[4]", "result": 0.95}, {"measurement": "Mean", "setting": "[4]", "result": 8270}, {"measurement": "% of cells in upper right quadrant (Q2)", "setting": "[5]", "result": 0.43}, {"measurement": "Mean", "setting": "[5]", "result": 10500}, {"measurement": "% of cells in upper right quadrant (Q2)", "setting": "[6]", "result": 1.33, "unit": "%"}, {"measurement": "% of cells in upper right quadrant (Q2)", "setting": "[7]", "result": 30.4, "unit": "%"}, {"measurement": "% of cells in upper right quadrant (Q2)", "setting": "[8]", "result": 0.66, "unit": "%"}, {"measurement": "% of cells in upper right quadrant (Q2)", "setting": "[9]", "result": 25.7, "unit": "%"}, {"measurement": "% of cells in upper right quadrant (Q2)", "setting": "[10]", "result": 30.8, "unit": "%"}]}
{"binder": "TY21591 (antibody, V domains shown, human IgG1 (hIgG1) from Fab hit B15756) VH: EVQLVESGGGLVQPGGSLRLSCAASGFSLSTGGVAVSWIRQAPGKGLEWIGEIYHSGSTYYSPSLKSRVTISRDNSKNTLYLQLNSLRAEDTAVYYCARRIATATYFDYWGQGTLVTVSS VL: DIQLTQSPSSLSASVGDRVTITCRASQTVFSRYLAWYQQKPGKAPKLLIYDASNRATGIPSRFSGSGSGTDFTLTISSLQPEDFATYYCQQSYYWPPWTFGQGTKVEIK", "values": [{"measurement": "% of cells in upper right quadrant (Q2)", "setting": "[11]", "result": 0.42}, {"measurement": "Mean", "setting": "[11]", "result": 11900}]}
